Measured values taken from US20130065819.

Columns and labels:
[1] = molecular target: N-terminal FLAG tagged TOE1 mutant D195A
[2] = molecular target: N-terminal FLAG tagged TOE1 mutant D282A
[3] = molecular target: N-terminal FLAG tagged TOE1 mutant D363A
[4] = molecular target: N-terminal FLAG tagged TOE1 mutant D373A
[5] = molecular target: TOE1 mutated at the ExPASy-predicted caspase-1 cleavage site FTAD (position 214-217)
[6] = molecular target: human TOE1 (Target of Egr1)

B1: recombinant caspase-1 (Calbiochem) (protein)
chain: NPAMPTSSGSEGNVKLCSLEEAQRIWKQKSAEIYPIMDKSSRTRLALIICNEEFDSIPRRTGAEVDITGMTMLLQNLGYSVDVKKNLTASDMTTELEAFAHRPEHKTSDSTFLVFMSHGIREGICGKKHSEQVPDILQLNAIFNMLNTKNCPSLKDKPKVIIIQACRGDSPGVVWFKDSVGVSGNLSLPTTEEFEDDAIKKAHIEKDFIAFCSSTPDNVSWRHPTMGSVFIGRLIEHMQEYACSCDVEEIFRKVRFSFEQPDGRAQMPTTERVTLTRCFYLFPGH
- in vitro caspase-1 cleavage of immunoprecipitated mutant, Western blot [1]: two of these mutations were found to prevent the appearance of a cleavage product of TOE1 upon incubation with caspase-1. These consisted of the D195 and D282 residues within the sites GLID and DIHD respectively
- in vitro caspase-1 cleavage of immunoprecipitated mutant, Western blot [2]: two of these mutations were found to prevent the appearance of a cleavage product of TOE1 upon incubation with caspase-1. These consisted of the D195 and D282 residues within the sites GLID and DIHD respectively
- in vitro caspase-1 cleavage of immunoprecipitated mutant, Western blot [3]: caspase-1 cleaves TOE1 at residues 363 and 373 as evidenced by the lack of a 17 kDa fragment in the TOE1 mutants containing an alanine at residues 363 and 373
- in vitro caspase-1 cleavage of immunoprecipitated mutant, Western blot [4]: caspase-1 cleaves TOE1 at residues 363 and 373 as evidenced by the lack of a 17 kDa fragment in the TOE1 mutants containing an alanine at residues 363 and 373
- in vitro caspase-1 cleavage of mutant, Western blot [5]: when the caspase-1 cleavage site predicted using the ExPASy software was mutated (FTAD), in vitro cleavage was maintained
- in vitro digestion of immunoprecipitated TOE1 with recombinant caspase-1, Western blot [6]: We found that TOE1 was indeed processed by caspase-1, and generated multiple cleaved forms
